Data published in patent US20150344570A1 (published 2015).

T1: FcγRIIa R (FcγRIIa, allotype with Arg at position 131), extracellular domain with C-terminal His tag (human, UniProt P12318 34-217)
T1 construct: extracellular domain; also called FcγRIIa R type; 2aR
T1 sequence (looked up): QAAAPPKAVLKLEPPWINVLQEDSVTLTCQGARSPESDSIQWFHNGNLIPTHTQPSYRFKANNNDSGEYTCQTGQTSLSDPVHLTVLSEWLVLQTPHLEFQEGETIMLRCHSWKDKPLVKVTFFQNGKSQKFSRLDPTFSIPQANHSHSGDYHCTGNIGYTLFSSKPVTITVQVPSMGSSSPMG

B1: GpH7-B3 variant Y296_14T/GpL16-k0 (antibody, human IgG1, kappa)
heavy: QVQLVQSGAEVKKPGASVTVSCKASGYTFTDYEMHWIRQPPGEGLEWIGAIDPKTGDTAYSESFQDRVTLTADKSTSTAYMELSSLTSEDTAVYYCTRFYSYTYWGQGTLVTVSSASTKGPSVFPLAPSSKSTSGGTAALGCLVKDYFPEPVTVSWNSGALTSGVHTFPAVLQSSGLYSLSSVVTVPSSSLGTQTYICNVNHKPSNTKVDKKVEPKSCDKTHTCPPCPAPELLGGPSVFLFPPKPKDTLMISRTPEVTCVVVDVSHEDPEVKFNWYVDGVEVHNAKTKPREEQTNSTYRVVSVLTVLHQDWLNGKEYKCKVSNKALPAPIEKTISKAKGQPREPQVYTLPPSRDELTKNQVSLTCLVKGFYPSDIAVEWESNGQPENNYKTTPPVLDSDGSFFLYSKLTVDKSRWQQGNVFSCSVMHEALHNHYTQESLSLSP
light: DIVMTQSPLSLPVTPGEPASISCQASESLVHSNRNTYLHWYLQKPGQSPQLLIYKVSNRFSGVPDRFSGSGSGTDFTLKISRVEAEDVGVYYCSQNTHVPPTFGQGTKVEIERTVAAPSVFIFPPSDEQLKSGTASVVCLLNNFYPREAKVQWKVDNALQSGNSQESVTEQDSKDSTYSLSSTLTLSKADYEKHKVYACEVTHQGLSSPVTKSFNRGEC
notes: also called Ho Ab
B2: GpH7-A5/GpH7-B3 variant S337_02A/GpL16-k0 (antibody, human IgG1, kappa)
heavy 1: not shown
heavy 2: not shown
light: B1 light
notes: also called He Ab
B3: GpH7-A5/GpH7-B3 variant S337_19Q/GpL16-k0 (antibody, human IgG1, kappa)
heavy 1: not shown
heavy 2: not shown
light: B1 light
notes: also called He Ab
B4: GpH7-A5/GpH7-B3 variant S337_04F/GpL16-k0 (antibody, human IgG1, kappa)
heavy 1: not shown
heavy 2: not shown
light: B1 light
notes: also called He Ab
B5: GpH7-A5/GpH7-B3 variant T335_05P/GpL16-k0 (antibody, human IgG1, kappa)
heavy 1: not shown
heavy 2: not shown
light: B1 light
notes: also called He Ab
B6: GpH7-A5/GpH7-B3 variant P331_13S/GpL16-k0 (antibody, human IgG1, kappa)
heavy 1: not shown
heavy 2: not shown
light: B1 light
notes: also called He Ab
B7: GpH7-B3 variant Y296_18N/GpL16-k0 (antibody, human IgG1, kappa)
heavy: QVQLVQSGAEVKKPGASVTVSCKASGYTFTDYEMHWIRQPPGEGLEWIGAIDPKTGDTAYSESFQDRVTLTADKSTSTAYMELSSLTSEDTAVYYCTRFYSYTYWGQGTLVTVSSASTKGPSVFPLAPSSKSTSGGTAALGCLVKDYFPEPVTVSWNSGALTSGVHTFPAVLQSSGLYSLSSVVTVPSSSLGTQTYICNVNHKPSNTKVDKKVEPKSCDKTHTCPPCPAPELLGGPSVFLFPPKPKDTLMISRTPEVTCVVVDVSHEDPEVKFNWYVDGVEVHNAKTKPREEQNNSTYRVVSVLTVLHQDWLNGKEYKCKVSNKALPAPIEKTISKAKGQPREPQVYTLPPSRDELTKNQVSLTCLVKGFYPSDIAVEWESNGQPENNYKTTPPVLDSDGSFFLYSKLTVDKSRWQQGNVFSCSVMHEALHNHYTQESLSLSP
light: B1 light
notes: also called Ho Ab
B8: GpH7-A5/GpH7-B3 variant Q295_10E/GpL16-k0 (antibody, human IgG1, kappa)
heavy 1: not shown
heavy 2: not shown
light: B1 light
notes: also called He Ab
B9: GpH7-A5/GpH7-B3 variant S337_10E/GpL16-k0 (antibody, human IgG1, kappa)
heavy 1: not shown
heavy 2: not shown
light: B1 light
notes: also called He Ab
B10: GpH7-A5/GpH7-B3 variant T335_01G/GpL16-k0 (antibody, human IgG1, kappa)
heavy 1: not shown
heavy 2: not shown
light: B1 light
notes: also called He Ab
B11: GpH7-A5/GpH7-B3 variant P331_20W/GpL16-k0 (antibody, human IgG1, kappa)
heavy 1: not shown
heavy 2: not shown
light: B1 light
notes: also called He Ab
B12: GpH7-A5/GpH7-B3 variant P331_14T/GpL16-k0 (antibody, human IgG1, kappa)
heavy 1: not shown
heavy 2: not shown
light: B1 light
notes: also called He Ab
B13: GpH7-A5/GpH7-B3 variant T335_10E/GpL16-k0 (antibody, human IgG1, kappa)
heavy 1: not shown
heavy 2: not shown
light: B1 light
notes: also called He Ab
B14: GpH7-A5/GpH7-B3 variant P331_06M/GpL16-k0 (antibody, human IgG1, kappa)
heavy 1: not shown
heavy 2: not shown
light: B1 light
notes: also called He Ab
B15: GpH7-A5/GpH7-B3 variant P331_16H/GpL16-k0 (antibody, human IgG1, kappa)
heavy 1: not shown
heavy 2: not shown
light: B1 light
notes: also called He Ab
B16: GpH7-A5/GpH7-B3 variant S239_05P/GpL16-k0 (antibody, human IgG1, kappa)
heavy 1: not shown
heavy 2: not shown
light: B1 light
notes: also called He Ab
B17: GpH7-A5/GpH7-B3 variant S337_15Y/GpL16-k0 (antibody, human IgG1, kappa)
heavy 1: not shown
heavy 2: not shown
light: B1 light
notes: also called He Ab
B18: GpH7-A5/GpH7-B3 variant S337_16H/GpL16-k0 (antibody, human IgG1, kappa)
heavy 1: not shown
heavy 2: not shown
light: B1 light
notes: also called He Ab
B19: GpH7-A5/GpH7-B3 variant S267_06M/GpL16-k0 (antibody, human IgG1, kappa)
heavy 1: not shown
heavy 2: not shown
light: B1 light
notes: also called He Ab
B20: GpH7-A5/GpH7-B3 variant P331_18N/GpL16-k0 (antibody, human IgG1, kappa)
heavy 1: not shown
heavy 2: not shown
light: B1 light
notes: also called He Ab
B21: GpH7-A5/GpH7-B3 variant S337_20W/GpL16-k0 (antibody, human IgG1, kappa)
heavy 1: not shown
heavy 2: not shown
light: B1 light
notes: also called He Ab
B22: GpH7-A5/GpH7-B3 variant T335_02A/GpL16-k0 (antibody, human IgG1, kappa)
heavy 1: not shown
heavy 2: not shown
light: B1 light
notes: also called He Ab
B23: GpH7-A5/GpH7-B3 variant S337_07I/GpL16-k0 (antibody, human IgG1, kappa)
heavy 1: not shown
heavy 2: not shown
light: B1 light
notes: also called He Ab
B24: GpH7-A5/GpH7-B3 variant T335_18N/GpL16-k0 (antibody, human IgG1, kappa)
heavy 1: not shown
heavy 2: not shown
light: B1 light
notes: also called He Ab
B25: GpH7-A5/GpH7-B3 variant S337_12R/GpL16-k0 (antibody, human IgG1, kappa)
heavy 1: not shown
heavy 2: not shown
light: B1 light
notes: also called He Ab
B26: GpH7-A5/GpH7-B3 variant S337_08L/GpL16-k0 (antibody, human IgG1, kappa)
heavy 1: not shown
heavy 2: not shown
light: B1 light
notes: also called He Ab
B27: GpH7-A5/GpH7-B3 variant P331_10E/GpL16-k0 (antibody, human IgG1, kappa)
heavy 1: not shown
heavy 2: not shown
light: B1 light
notes: also called He Ab
B28: GpH7-A5/GpH7-B3 variant S239_10E/GpL16-k0 (antibody, human IgG1, kappa)
heavy 1: not shown
heavy 2: not shown
light: B1 light
notes: also called He Ab
B29: GpH7-A5/GpH7-B3 variant T335_13S/GpL16-k0 (antibody, human IgG1, kappa)
heavy 1: not shown
heavy 2: not shown
light: B1 light
notes: also called He Ab

Molecular target: T1, FcγRIIa R (FcγRIIa, allotype with Arg …)
Test: SPR (Biacore), antibody captured on antigen peptide chip, FcγR as analyte; relative binding

Row | Ho/Con_2aR | He/Con_2aR | Binder
1 | 90.3 % of GpH7-B3/GpL16-k0 (=100) |  | B1
2 |  | 105 % of GpH7-A5/GpH7-B3/GpL16-k0 (=100) | B2
3 |  | 106 % of GpH7-A5/GpH7-B3/GpL16-k0 (=100) | B3
4 |  | 105 % of GpH7-A5/GpH7-B3/GpL16-k0 (=100) | B4
5 |  | 104 % of GpH7-A5/GpH7-B3/GpL16-k0 (=100) | B5
6 |  | 105 % of GpH7-A5/GpH7-B3/GpL16-k0 (=100) | B6
7 | 93.7 % of GpH7-B3/GpL16-k0 (=100) |  | B7
8 |  | 102 % of GpH7-A5/GpH7-B3/GpL16-k0 (=100) | B8
9 |  | 112 % of GpH7-A5/GpH7-B3/GpL16-k0 (=100) | B9
10 |  | 104 % of GpH7-A5/GpH7-B3/GpL16-k0 (=100) | B10
11 |  | 110 % of GpH7-A5/GpH7-B3/GpL16-k0 (=100) | B11
12 |  | 104 % of GpH7-A5/GpH7-B3/GpL16-k0 (=100) | B12
13 |  | 111 % of GpH7-A5/GpH7-B3/GpL16-k0 (=100) | B13
14 |  | 106 % of GpH7-A5/GpH7-B3/GpL16-k0 (=100) | B14
15 |  | 114 % of GpH7-A5/GpH7-B3/GpL16-k0 (=100) | B15
16 |  | 106 % of GpH7-A5/GpH7-B3/GpL16-k0 (=100) | B16
17 |  | 105 % of GpH7-A5/GpH7-B3/GpL16-k0 (=100) | B17
18 |  | 109 % of GpH7-A5/GpH7-B3/GpL16-k0 (=100) | B18
19 |  | 122 % of GpH7-A5/GpH7-B3/GpL16-k0 (=100) | B19
20 |  | 105 % of GpH7-A5/GpH7-B3/GpL16-k0 (=100) | B20
21 |  | 110 % of GpH7-A5/GpH7-B3/GpL16-k0 (=100) | B21
22 |  | 102 % of GpH7-A5/GpH7-B3/GpL16-k0 (=100) | B22
23 |  | 109 % of GpH7-A5/GpH7-B3/GpL16-k0 (=100) | B23
24 |  | 106 % of GpH7-A5/GpH7-B3/GpL16-k0 (=100) | B24
25 |  | 107 % of GpH7-A5/GpH7-B3/GpL16-k0 (=100) | B25
26 |  | 107 % of GpH7-A5/GpH7-B3/GpL16-k0 (=100) | B26
27 |  | 113 % of GpH7-A5/GpH7-B3/GpL16-k0 (=100) | B27
28 |  | 135 % of GpH7-A5/GpH7-B3/GpL16-k0 (=100) | B28
29 |  | 110 % of GpH7-A5/GpH7-B3/GpL16-k0 (=100) | B29
